From patent US20080020978A1 (Amgen, published 2008)
Bridge positions count the residues as written; N and C are the ends. Square brackets hold non-standard residues; d marks the D form. 1Nal = N[C@@H](Cc1cccc2ccccc12)C(=O)O; hArg = N=C(N)NCCCC[C@H](N)C(=O)O; hCit = NC(=O)NCCCC[C@H](N)C(=O)O; Cit = NC(=O)NCCC[C@H](N)C(=O)O

B1: PEG-peptide of SEQ ID NO 886 (peptide)
peptide: WVTHXLAGLLSXSGGVVXKNFVPTDVGPFAF
modifications: Ac-WVTH[hCit]LAGLLS[hCit]SGGVV[hArg]KNFVPTDVGPFAF-NH2; PEG-conjugated (Table 2C: in most cases at Lys^25)
B2: PEG-peptide of SEQ ID NO 887 (peptide)
peptide: B1 peptide
modifications: Ac-WVTH[hArg]LAGLLS[hCit]SGGVV[hArg]KNFVPTDVGPFAF-NH2; PEG-conjugated (Table 2C: in most cases at Lys^25)
B3: SEQ ID NO 893 (peptide)
peptide: Ac-WVEHRLKGLLS[Cit]SGGVVRKNFVPTDVGPFAF-NH2
modifications: lactam 3-7
SMILES: CC(=O)N[C@@H](Cc1c[nH]c2ccccc12)C(=O)N[C@H](C(=O)N[C@H]1CCC(=O)NCCCC[C@@H](C(=O)NCC(=O)N[C@@H](CC(C)C)C(=O)N[C@@H](CC(C)C)C(=O)N[C@@H](CO)C(=O)N[C@@H](CCCNC(N)=O)C(=O)N[C@@H](CO)C(=O)NCC(=O)NCC(=O)N[C@H](C(=O)N[C@H](C(=O)N[C@@H](CCCNC(=N)N)C(=O)N[C@@H](CCCCN)C(=O)N[C@@H](CC(N)=O)C(=O)N[C@@H](Cc2ccccc2)C(=O)N[C@H](C(=O)N2CCC[C@H]2C(=O)N[C@H](C(=O)N[C@@H](CC(=O)O)C(=O)N[C@H](C(=O)NCC(=O)N2CCC[C@H]2C(=O)N[C@@H](Cc2ccccc2)C(=O)N[C@@H](C)C(=O)N[C@@H](Cc2ccccc2)C(N)=O)C(C)C)[C@@H](C)O)C(C)C)C(C)C)C(C)C)NC(=O)[C@H](CC(C)C)NC(=O)[C@H](CCCNC(=N)N)NC(=O)[C@H](Cc2c[nH]cn2)NC1=O)C(C)C
B4: SEQ ID NO 889 (peptide)
peptide: Ac-WVTHRLRGELSRKGGVVRKNFVPTDVGPFAF-NH2
modifications: lactam 9-13
SMILES: CC(=O)N[C@@H](Cc1c[nH]c2ccccc12)C(=O)N[C@H](C(=O)N[C@H](C(=O)N[C@@H](Cc1c[nH]cn1)C(=O)N[C@@H](CCCNC(=N)N)C(=O)N[C@@H](CC(C)C)C(=O)N[C@@H](CCCNC(=N)N)C(=O)NCC(=O)N[C@H]1CCC(=O)NCCCC[C@@H](C(=O)NCC(=O)NCC(=O)N[C@H](C(=O)N[C@H](C(=O)N[C@@H](CCCNC(=N)N)C(=O)N[C@@H](CCCCN)C(=O)N[C@@H](CC(N)=O)C(=O)N[C@@H](Cc2ccccc2)C(=O)N[C@H](C(=O)N2CCC[C@H]2C(=O)N[C@H](C(=O)N[C@@H](CC(=O)O)C(=O)N[C@H](C(=O)NCC(=O)N2CCC[C@H]2C(=O)N[C@@H](Cc2ccccc2)C(=O)N[C@@H](C)C(=O)N[C@@H](Cc2ccccc2)C(N)=O)C(C)C)[C@@H](C)O)C(C)C)C(C)C)C(C)C)NC(=O)[C@H](CCCNC(=N)N)NC(=O)[C@H](CO)NC(=O)[C@H](CC(C)C)NC1=O)[C@@H](C)O)C(C)C
B5: SEQ ID NO 897 (peptide)
peptide: Ac-[1Nal]VEH[hArg]LKGLLS[Cit]SGGVVRKNFVPTDVGPFAF-NH2
modifications: lactam 3-7
SMILES: CC(=O)N[C@@H](Cc1cccc2ccccc12)C(=O)N[C@H](C(=O)N[C@H]1CCC(=O)NCCCC[C@@H](C(=O)NCC(=O)N[C@@H](CC(C)C)C(=O)N[C@@H](CC(C)C)C(=O)N[C@@H](CO)C(=O)N[C@@H](CCCNC(N)=O)C(=O)N[C@@H](CO)C(=O)NCC(=O)NCC(=O)N[C@H](C(=O)N[C@H](C(=O)N[C@@H](CCCNC(=N)N)C(=O)N[C@@H](CCCCN)C(=O)N[C@@H](CC(N)=O)C(=O)N[C@@H](Cc2ccccc2)C(=O)N[C@H](C(=O)N2CCC[C@H]2C(=O)N[C@H](C(=O)N[C@@H](CC(=O)O)C(=O)N[C@H](C(=O)NCC(=O)N2CCC[C@H]2C(=O)N[C@@H](Cc2ccccc2)C(=O)N[C@@H](C)C(=O)N[C@@H](Cc2ccccc2)C(N)=O)C(C)C)[C@@H](C)O)C(C)C)C(C)C)C(C)C)NC(=O)[C@H](CC(C)C)NC(=O)[C@H](CCCCNC(=N)N)NC(=O)[C@H](Cc2c[nH]cn2)NC1=O)C(C)C
B6: SEQ ID NO 896 (peptide)
peptide: Ac-WVEHRLKGLLS[Cit]SGGVVRKNFVPTDVGPFAF-NH2
modifications: lactam 3-7
SMILES: CC(=O)N[C@@H](Cc1c[nH]c2ccccc12)C(=O)N[C@H](C(=O)N[C@H]1CCC(=O)NCCCC[C@@H](C(=O)NCC(=O)N[C@@H](CC(C)C)C(=O)N[C@@H](CC(C)C)C(=O)N[C@@H](CO)C(=O)N[C@@H](CCCNC(N)=O)C(=O)N[C@@H](CO)C(=O)NCC(=O)NCC(=O)N[C@H](C(=O)N[C@H](C(=O)N[C@@H](CCCNC(=N)N)C(=O)N[C@@H](CCCCN)C(=O)N[C@@H](CC(N)=O)C(=O)N[C@@H](Cc2ccccc2)C(=O)N[C@H](C(=O)N2CCC[C@H]2C(=O)N[C@H](C(=O)N[C@@H](CC(=O)O)C(=O)N[C@H](C(=O)NCC(=O)N2CCC[C@H]2C(=O)N[C@@H](Cc2ccccc2)C(=O)N[C@@H](C)C(=O)N[C@@H](Cc2ccccc2)C(N)=O)C(C)C)[C@@H](C)O)C(C)C)C(C)C)C(C)C)NC(=O)[C@H](CC(C)C)NC(=O)[C@H](CCCNC(=N)N)NC(=O)[C@H](Cc2c[nH]cn2)NC1=O)C(C)C
B7: SEQ ID NO 890 (peptide)
peptide: Ac-WVEHRLEGLLKRSGGVVRKNFVPTDVGPFAF-NH2
modifications: lactam 7-11
SMILES: CC(=O)N[C@@H](Cc1c[nH]c2ccccc12)C(=O)N[C@H](C(=O)N[C@@H](CCC(=O)O)C(=O)N[C@@H](Cc1c[nH]cn1)C(=O)N[C@@H](CCCNC(=N)N)C(=O)N[C@@H](CC(C)C)C(=O)N[C@H]1CCC(=O)NCCCC[C@@H](C(=O)N[C@@H](CCCNC(=N)N)C(=O)N[C@@H](CO)C(=O)NCC(=O)NCC(=O)N[C@H](C(=O)N[C@H](C(=O)N[C@@H](CCCNC(=N)N)C(=O)N[C@@H](CCCCN)C(=O)N[C@@H](CC(N)=O)C(=O)N[C@@H](Cc2ccccc2)C(=O)N[C@H](C(=O)N2CCC[C@H]2C(=O)N[C@H](C(=O)N[C@@H](CC(=O)O)C(=O)N[C@H](C(=O)NCC(=O)N2CCC[C@H]2C(=O)N[C@@H](Cc2ccccc2)C(=O)N[C@@H](C)C(=O)N[C@@H](Cc2ccccc2)C(N)=O)C(C)C)[C@@H](C)O)C(C)C)C(C)C)C(C)C)NC(=O)[C@H](CC(C)C)NC(=O)[C@H](CC(C)C)NC(=O)CNC1=O)C(C)C
B8: SEQ ID NO 895 (peptide)
peptide: Ac-WVEHRLKGLLS[Cit]SGGVVRKNFVPTDVGPFAF-NH2
modifications: lactam 3-7
SMILES: CC(=O)N[C@@H](Cc1c[nH]c2ccccc12)C(=O)N[C@H](C(=O)N[C@H]1CCC(=O)NCCCC[C@@H](C(=O)NCC(=O)N[C@@H](CC(C)C)C(=O)N[C@@H](CC(C)C)C(=O)N[C@@H](CO)C(=O)N[C@@H](CCCNC(N)=O)C(=O)N[C@@H](CO)C(=O)NCC(=O)NCC(=O)N[C@H](C(=O)N[C@H](C(=O)N[C@@H](CCCNC(=N)N)C(=O)N[C@@H](CCCCN)C(=O)N[C@@H](CC(N)=O)C(=O)N[C@@H](Cc2ccccc2)C(=O)N[C@H](C(=O)N2CCC[C@H]2C(=O)N[C@H](C(=O)N[C@@H](CC(=O)O)C(=O)N[C@H](C(=O)NCC(=O)N2CCC[C@H]2C(=O)N[C@@H](Cc2ccccc2)C(=O)N[C@@H](C)C(=O)N[C@@H](Cc2ccccc2)C(N)=O)C(C)C)[C@@H](C)O)C(C)C)C(C)C)C(C)C)NC(=O)[C@H](CC(C)C)NC(=O)[C@H](CCCNC(=N)N)NC(=O)[C@H](Cc2c[nH]cn2)NC1=O)C(C)C

The binders below were run against CGRP1 receptor (CRLR/RAMP1 complex) of human neuroblastoma SK-N-MC cells (human, UniProt Q16602 23-461; O60894 27-148) (assay: cell-based or functional assay).
Chain of CGRP1 receptor (CRLR/RAMP1 complex) of human neuroblastoma SK-N-MC cells (Q16602 23-461, chain 1 of 2): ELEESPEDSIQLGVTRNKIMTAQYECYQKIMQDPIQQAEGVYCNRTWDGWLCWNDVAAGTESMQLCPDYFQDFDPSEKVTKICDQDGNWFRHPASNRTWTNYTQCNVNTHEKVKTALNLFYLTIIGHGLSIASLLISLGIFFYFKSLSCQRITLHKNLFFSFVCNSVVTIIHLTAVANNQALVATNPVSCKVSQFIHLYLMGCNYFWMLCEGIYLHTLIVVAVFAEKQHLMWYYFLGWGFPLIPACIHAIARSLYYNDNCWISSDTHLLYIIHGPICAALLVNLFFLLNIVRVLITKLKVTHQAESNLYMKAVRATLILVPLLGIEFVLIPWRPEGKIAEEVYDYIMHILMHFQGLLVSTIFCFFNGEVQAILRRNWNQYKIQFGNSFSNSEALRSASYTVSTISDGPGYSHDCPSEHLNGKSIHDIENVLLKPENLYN
Chain of CGRP1 receptor (CRLR/RAMP1 complex) of human neuroblastoma SK-N-MC cells (O60894 27-148, chain 2 of 2): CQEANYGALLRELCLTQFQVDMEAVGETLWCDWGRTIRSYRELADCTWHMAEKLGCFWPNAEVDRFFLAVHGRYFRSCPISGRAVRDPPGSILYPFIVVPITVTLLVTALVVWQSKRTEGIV

Row | Binder | PEG-peptide IC50 [nM] | Peptide IC50 [nM]
1 | Ac-WVTH[hCit]LAGLLS[hArg]SGGVV[hArg]KNFVPTDVGPFAF-NH2 (also: PEG-conjugated, in most cases at Lys25) [PEG-peptide of SEQ ID NO 888] | 2.11 | –
2 | B1 | 22.7 | –
3 | WVTHXLAGLLSXSGGVVXKNFVPTDVGPFAF (Ac-WVTH[hArg]LAGLLS[hCit]SGGVV[hArg]KNFVPTDVGPFAF-NH2) [SEQ ID NO 887] | – | 3.14
4 | B2 | 6.3 | –
5 | Ac-[1Nal]VEH[hArg]LKGLLS[Cit]SGGVVRKNFVPTDVGPFAF-NH2 (lactam 3-7; also: PEG-conjugated, in most cases at Lys25) [PEG-peptide of SEQ ID NO 897] | 4.1 | –
6 | Ac-WVEH[hArg]LKGLLS[Cit]SGGVVRKNFVPTDVGPFAF-NH2 (lactam 3-7) [SEQ ID NO 894] | – | 1.26
7 | B3 | – | 1.64
8 | B4 | – | 0.94
9 | B5 | – | 2.25
10 | Ac-WVEHRLKGLLSRSGGVVRKNFVPTDVGPFAF-NH2 (lactam 3-7; also: PEG-conjugated, in most cases at Lys25) [PEG-peptide of SEQ ID NO 891] | 3.71 | –
11 | Ac-WVEHRLKGELSRKGGVVRKNFVPTDVGPFAF-NH2 (lactam 9-13, 3-7) [SEQ ID NO 892] | – | 1.11
12 | Ac-WVEH[hArg]LKGLLS[Cit]SGGVVRKNFVPTDVGPFAF-NH2 (lactam 3-7; also: PEG-conjugated, in most cases at Lys25) [PEG-peptide of SEQ ID NO 894] | 3.54 | –
13 | B6 | – | 1.61
14 | B7 | – | 1.7
15 | Ac-WVEHRLEGLLKRSGGVVRKNFVPTDVGPFAF-NH2 (lactam 7-11; also: PEG-conjugated, in most cases at Lys25) [PEG-peptide of SEQ ID NO 890] | 2.86 | –
16 | B8 | – | 2.8
17 | Ac-WVEHRLKGLLSRSGGVVRKNFVPTDVGPFAF-NH2 (lactam 3-7) [SEQ ID NO 891] | – | 1.47
